We go through 1 molecule from paper PMC10281804, “The structural basis of the talin–KANK1 interaction that coordinates the actin and microtubule cytoskeletons at focal adhesions” (Open Biology, 2023).

For the experiment, the target named is T1, Mouse talin-1 R7R8 (mouse, UniProt P26039 1359-1659).
T1 construct: talin-1, mouse, rod domains R7 and R8 (R7R8 double domain module); 15N-labelled for the NMR experiments; also called talin R7R8; R7R8 module; source: expressed and purified as described previously [9]
T1 sequence (P26039 1359-1659): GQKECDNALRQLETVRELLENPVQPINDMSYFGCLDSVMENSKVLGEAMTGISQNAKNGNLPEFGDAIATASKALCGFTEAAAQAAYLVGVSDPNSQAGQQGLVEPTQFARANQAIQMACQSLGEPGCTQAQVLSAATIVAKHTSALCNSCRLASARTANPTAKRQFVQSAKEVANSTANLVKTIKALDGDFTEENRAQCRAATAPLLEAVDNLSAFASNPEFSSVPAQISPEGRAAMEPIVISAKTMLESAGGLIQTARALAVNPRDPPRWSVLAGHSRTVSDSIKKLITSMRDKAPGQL
Description: fluorescence polarisation; BODIPY-TMR coupled peptide at 0.5 µM in PBS pH 7.4, 5 mM TCEP, 0.05% Triton X-100; one-site total and nonspecific binding model. The settings on record: both partners purified.

B1: KANK1 KN motif peptide (for FP), BODIPY-TMR coupled (peptide)
peptide: PYFVETPYGFQLDLDFVKYVDDIQKGNTIKKC
modifications: BODIPY-TMR coupled
notes: KANK1 KN motif, mouse residues 30-60; extra C-terminal cysteine printed beyond the stated limits 30-60; also called WT-KANK1; source: synthetic peptide, bought: GLBiochem (Shanghai)
Regarding B1, the Kd (commonly the concentration at which binding is half-saturated) was determined as 1200 nM.
